Assay results: paper PMC4510971 (2015)
Like-named read-outs stand apart in the source and are kept apart here.

Legend:
H3.3/H4 [1] = target: T1, H3.3/H4 (human | X. laevis, UniProt P84243 1-136; P62799 1-103); assay: ITC
H3.3/H4 [2] = target: T1, H3.3/H4; assay: FP
H3.3(G90M)/H4 = H3.3(G90M)/H4 (human | X. laevis, UniProt P62799 1-103); assay: ITC
H3.3/H4 [3] = target: T1, H3.3/H4; assay: FP; remark: listed apart in the source
H3.3/H4 [4] = target: T1, H3.3/H4; assay: ITC; remark: listed apart in the source

Row | IC50 (H3.3/H4 [3]) [µM] | Binder | further results
1 |  | UBN1(122–175) (domain or fragment) not shown | Kd (H3.3/H4 [1]): 14.6 µM
2 |  | UBN1(92–148) (domain or fragment) NDEEKERHKVEALARKFEEKYGGKKRRKDRIQDLIDMGYGYDESDSFIDNSEAYDEL | Kd (H3.3/H4 [1]): 16.5 µM
3 |  | IQDLIDMGYGYDESDSFIDNSEAYDEL [UBN1(122–148) peptide] | IC50 (H3.3/H4 [2]): 46.4 µM; Kd (H3.3(G90M)/H4): 115 µM
4 | 22.9 | UBN1(92–175) E147A (protein) NDEEKERHKVEALARKFEEKYGGKKRRKDRIQDLIDMGYGYDESDSFIDNSEAYDALVPASLTTKYGGFYINSGTLQFRQASES | 
5 | 14.4 | UBN1(92–175) Y130A (protein) NDEEKERHKVEALARKFEEKYGGKKRRKDRIQDLIDMGAGYDESDSFIDNSEAYDELVPASLTTKYGGFYINSGTLQFRQASES | 
6 | 16.3 | UBN1(92–175) A144I (protein) NDEEKERHKVEALARKFEEKYGGKKRRKDRIQDLIDMGYGYDESDSFIDNSEIYDELVPASLTTKYGGFYINSGTLQFRQASES | 
7 | 67.8 | UBN1(92–175) G129A (protein) NDEEKERHKVEALARKFEEKYGGKKRRKDRIQDLIDMAYGYDESDSFIDNSEAYDELVPASLTTKYGGFYINSGTLQFRQASES | 
8 | 16.4 | UBN1(92–175) Y145A (protein) NDEEKERHKVEALARKFEEKYGGKKRRKDRIQDLIDMGYGYDESDSFIDNSEAADELVPASLTTKYGGFYINSGTLQFRQASES | 
9 | 22.6 | UBN1(92–175) M128A (protein) NDEEKERHKVEALARKFEEKYGGKKRRKDRIQDLIDAGYGYDESDSFIDNSEAYDELVPASLTTKYGGFYINSGTLQFRQASES | 
10 | 15.1 | UBN1(92–175) L125A (protein) NDEEKERHKVEALARKFEEKYGGKKRRKDRIQDAIDMGYGYDESDSFIDNSEAYDELVPASLTTKYGGFYINSGTLQFRQASES | 
11 | 19.9 | UBN1(92–175) G131A (protein) NDEEKERHKVEALARKFEEKYGGKKRRKDRIQDLIDMGYAYDESDSFIDNSEAYDELVPASLTTKYGGFYINSGTLQFRQASES | 
12 | 13.8 | UBN1(92–175) Q123A (protein) NDEEKERHKVEALARKFEEKYGGKKRRKDRIADLIDMGYGYDESDSFIDNSEAYDELVPASLTTKYGGFYINSGTLQFRQASES | 
13 | 29.3 | UBN1(92–175) E143A (protein) NDEEKERHKVEALARKFEEKYGGKKRRKDRIQDLIDMGYGYDESDSFIDNSAAYDELVPASLTTKYGGFYINSGTLQFRQASES | 
14 | 16.9 | UBN1(92–175) I122A (protein) NDEEKERHKVEALARKFEEKYGGKKRRKDRAQDLIDMGYGYDESDSFIDNSEAYDELVPASLTTKYGGFYINSGTLQFRQASES | 
15 | 19.6 | UBN1(92–175) L148A (protein) NDEEKERHKVEALARKFEEKYGGKKRRKDRIQDLIDMGYGYDESDSFIDNSEAYDEAVPASLTTKYGGFYINSGTLQFRQASES | 
16 | 19.6 | UBN1(92–175) D124A (protein) NDEEKERHKVEALARKFEEKYGGKKRRKDRIQALIDMGYGYDESDSFIDNSEAYDELVPASLTTKYGGFYINSGTLQFRQASES | 
17 | 16.2 | UBN1(92–175) S137A (domain or fragment) NDEEKERHKVEALARKFEEKYGGKKRRKDRIQDLIDMGYGYDESDAFIDNSEAYDELVPASLTTKYGGFYINSGTLQFRQASES | 
18 | 23 | UBN1(92–175) D146A (protein) NDEEKERHKVEALARKFEEKYGGKKRRKDRIQDLIDMGYGYDESDSFIDNSEAYAELVPASLTTKYGGFYINSGTLQFRQASES | 
19 | 21.1 | UBN1(92–175) D127A (protein) NDEEKERHKVEALARKFEEKYGGKKRRKDRIQDLIAMGYGYDESDSFIDNSEAYDELVPASLTTKYGGFYINSGTLQFRQASES | 
20 | 13.8 | UBN1(92–175) I126A (protein) NDEEKERHKVEALARKFEEKYGGKKRRKDRIQDLADMGYGYDESDSFIDNSEAYDELVPASLTTKYGGFYINSGTLQFRQASES | 
21 | 16.6 | UBN1(92–175) (domain or fragment) NDEEKERHKVEALARKFEEKYGGKKRRKDRIQDLIDMGYGYDESDSFIDNSEAYDELVPASLTTKYGGFYINSGTLQFRQASES | Kd (H3.3/H4 [4]): 6.9 µM
